{"source": "patent US20170089914A1", "about": "(Merck Sharp & Dohme, published 2017)", "binders": {"B1": {"name": "A30633 Fab antibody (Fab-SASA secreted to culture medium) (Fab, V domains shown)", "VH": "QSLEESGGRLVTPGTPLTLTCTVSGFSLSTNDMNWVRQAPGKGLEWIGVIYSDDTPDYATWAKGRFTISRTSTTVDLKITSPTTEDTATYFCARGHYDSAVYAYALNIWGPGTLVTVSS", "VL": "ELVMTQTPSSVSAAVGGTVTITCQASQSLSNLLAWYQQKPGQPPKLLIYGASNLESGVPSRFRGSGSGTDFTLTISGMKAEDAATYYCQGGHYSGLTFGNGTNVEIK", "notes": "Rabbit variable domains from a Fab phage library; Tested as Fab-SASA expressed from the pFASEBA vector and captured on BSA via SASA"}, "B2": {"name": "A30514 Fab antibody (Fab-SASA secreted to culture medium) (Fab, V domains shown)", "VH": "QEQLVESGGRLVTPGTPLTLTCTASGFSLGSDFMSWVRQAPGKGLEWIGYIDPRSDIPYYASWAKGRFTISKTSTTVDLKITSPTTEDTATYFCARDLNAGYFNGIFYIWGPGTLVTVSS", "VL": "ELVMTQTPSSVSAAVGDTVTINCQASETVATLLAWYQQKPGQPPKLLIYGASNLESGVPSRFRGSGSGTEFTLTISGMKAEDAATYYCQYGYISTGSNTFGAGTNVEIK", "notes": "as for B1"}, "B3": {"name": "A30523 Fab antibody (Fab-SASA secreted to culture medium) (Fab, V domains shown)", "VH": "QEQLVESGGRLVTPGTPLTLTCTASGFSLGSDFMSWVRQAPGKGLEWIGYIDPRSDIPYYASWAKGRFTISKTSTTVDLKITSPTTEDTATYFCARDLNAGYFNGIFYIWGPGTLVTVSS", "VL": "ELDMTQTPSSTSEPVGGTVTINCQASQTISSYLSWYQQKPGHPPKLLIYDASDLASGVPSRFSGSRSGTQFTLTISGVQCDDAATYYCLGVYDYRSDDGAAFGGGTELEIL", "notes": "as for B1"}}}
{"target": "pembrolizumab F(ab')2 protein", "sequence (chain, as listed by the source, chain 1 of 2)": "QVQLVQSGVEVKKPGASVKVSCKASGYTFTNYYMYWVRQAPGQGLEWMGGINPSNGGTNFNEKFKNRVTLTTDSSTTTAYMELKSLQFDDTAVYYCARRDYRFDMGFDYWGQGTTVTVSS", "sequence (chain, as listed by the source, chain 2 of 2)": "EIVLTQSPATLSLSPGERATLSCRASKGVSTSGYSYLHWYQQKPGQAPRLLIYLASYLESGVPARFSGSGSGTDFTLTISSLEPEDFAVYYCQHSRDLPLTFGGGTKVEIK", "assay": "SPR (BIAcore T200), Fab-SASA captured on BSA chip, pembrolizumab F(ab')2 as analyte, 1:1 fit", "units": {"koff": "s⁻¹"}}
{"binder": "B1", "koff": 0.0012}
{"binder": "B2", "koff": "6.5e-05"}
{"binder": "B3", "koff": 0.00034}
